Key:
[1] = biological target: T1, human Napi2a-mCherry on HEK293 cells (human, UniProt Q06495 1-639); test: flow cytometry on HEK293 cells expressing human Napi2a-mCherry (panel Napi2a-HEK293), MFI ratio to the non-specific binding control
T1 construct: whole, on cells; also called Napi2a (SLC34A1); not shown: mCherry fusion
T1 sequence (looked up): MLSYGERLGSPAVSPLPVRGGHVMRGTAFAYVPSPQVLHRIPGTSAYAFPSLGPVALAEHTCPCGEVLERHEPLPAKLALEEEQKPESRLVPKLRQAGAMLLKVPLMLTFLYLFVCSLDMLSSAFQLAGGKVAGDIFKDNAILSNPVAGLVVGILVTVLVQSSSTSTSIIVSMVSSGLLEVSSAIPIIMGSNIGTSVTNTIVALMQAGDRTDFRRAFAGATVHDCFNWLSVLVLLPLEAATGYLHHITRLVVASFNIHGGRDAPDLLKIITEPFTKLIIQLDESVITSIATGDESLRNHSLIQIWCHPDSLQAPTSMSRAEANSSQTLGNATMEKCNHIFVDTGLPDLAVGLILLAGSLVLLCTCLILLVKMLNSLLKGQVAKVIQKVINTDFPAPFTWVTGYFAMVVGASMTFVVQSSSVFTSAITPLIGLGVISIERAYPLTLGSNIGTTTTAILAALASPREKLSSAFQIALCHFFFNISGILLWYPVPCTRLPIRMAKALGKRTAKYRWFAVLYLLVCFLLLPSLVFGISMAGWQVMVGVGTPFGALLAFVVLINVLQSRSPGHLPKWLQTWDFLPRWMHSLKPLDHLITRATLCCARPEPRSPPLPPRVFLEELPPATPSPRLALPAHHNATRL

[2] = biological target: T2, HEK293 cyno-NaPi2B-mCherry (Macaca fascicularis, UniProt A0A2K5UHY1); test: flow cytometry on HEK293 cells stably expressing cynomolgus full-length NaPi2b-mCherry, Alexa-dye anti-human IgG H+L secondary antibody, MFI ratio, one-site specific binding fit; the Kd table prints no unit, the concentration axis is in nM
T2 construct: full-length mCherry fusion stably expressed on HEK293 cells; also called cynomolgus full-length NaPi2b-mCherry on HEK293 cells
T2 sequence (target on cells): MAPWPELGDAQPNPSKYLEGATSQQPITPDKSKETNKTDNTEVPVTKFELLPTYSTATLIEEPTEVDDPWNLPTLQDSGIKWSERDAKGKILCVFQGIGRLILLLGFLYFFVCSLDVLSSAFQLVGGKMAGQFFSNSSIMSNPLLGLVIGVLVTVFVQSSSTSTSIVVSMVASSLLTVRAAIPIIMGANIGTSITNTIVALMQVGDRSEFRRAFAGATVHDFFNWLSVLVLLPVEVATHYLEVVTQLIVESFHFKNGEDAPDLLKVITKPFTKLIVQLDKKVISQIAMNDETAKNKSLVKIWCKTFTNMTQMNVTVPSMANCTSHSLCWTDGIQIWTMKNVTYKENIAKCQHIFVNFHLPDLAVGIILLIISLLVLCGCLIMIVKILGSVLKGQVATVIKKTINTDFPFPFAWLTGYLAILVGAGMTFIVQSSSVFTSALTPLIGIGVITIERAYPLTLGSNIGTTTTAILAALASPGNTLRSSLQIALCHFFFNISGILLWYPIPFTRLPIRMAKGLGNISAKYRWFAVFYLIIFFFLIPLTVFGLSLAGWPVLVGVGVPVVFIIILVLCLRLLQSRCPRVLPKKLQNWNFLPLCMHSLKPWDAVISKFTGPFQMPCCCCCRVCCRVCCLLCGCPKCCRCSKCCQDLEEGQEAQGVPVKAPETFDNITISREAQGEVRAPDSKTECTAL
Description: (§1) HEK293 cells stably overexpressing human and rat Napi2b were generated by stable integration of a human or rat full-length Napi2b-mCherry-(GGGS)3x-mCherry expression construct under control of a human EF1 promoter and a Puromycin-selection cassette under a CMV promoter into the parental HEK293 cell line. In brief, cells were transfected with the linearized plasmids using Lipfectamine 2000 (Thermo Fisher) and selected with Puromycin antibiotic. Cells were then single cell cloned in 96-well plates via serial dilution under continuous antibiotic selection. Clones were screened for target expression via flow cytometry and mCherry fluorescence via flow cytometry and fluorescence microscopy. Target- and mCherry-positive clones were expanded and used for further experiments. […] Binding of antibodies was investigated on mCherry-positive cells. Mean fluorescence intensity (MFI) ratios were normalized to the secondary antibody control. The assay was performed in duplicates and data points were analyzed by a non-linear regression using a one-site specific binding model to derive KD values using Prism 9 software.

[3] = biological target: T3, human Napi2b-mCherry on HEK293 cells (human, UniProt O95436 1-690); test: flow cytometry on HEK293 cells stably expressing human full-length NaPi2b-mCherry, Alexa-dye anti-human IgG H+L secondary antibody, MFI ratio, one-site specific binding fit; the Kd table prints no unit, the concentration axis is in nM; second experiment on human cells, run beside the rat cells of FIG. 3D
T3 construct: also called Napi2b (SLC34A2); HEK293 cells overexpressing Napi2b
T3 sequence: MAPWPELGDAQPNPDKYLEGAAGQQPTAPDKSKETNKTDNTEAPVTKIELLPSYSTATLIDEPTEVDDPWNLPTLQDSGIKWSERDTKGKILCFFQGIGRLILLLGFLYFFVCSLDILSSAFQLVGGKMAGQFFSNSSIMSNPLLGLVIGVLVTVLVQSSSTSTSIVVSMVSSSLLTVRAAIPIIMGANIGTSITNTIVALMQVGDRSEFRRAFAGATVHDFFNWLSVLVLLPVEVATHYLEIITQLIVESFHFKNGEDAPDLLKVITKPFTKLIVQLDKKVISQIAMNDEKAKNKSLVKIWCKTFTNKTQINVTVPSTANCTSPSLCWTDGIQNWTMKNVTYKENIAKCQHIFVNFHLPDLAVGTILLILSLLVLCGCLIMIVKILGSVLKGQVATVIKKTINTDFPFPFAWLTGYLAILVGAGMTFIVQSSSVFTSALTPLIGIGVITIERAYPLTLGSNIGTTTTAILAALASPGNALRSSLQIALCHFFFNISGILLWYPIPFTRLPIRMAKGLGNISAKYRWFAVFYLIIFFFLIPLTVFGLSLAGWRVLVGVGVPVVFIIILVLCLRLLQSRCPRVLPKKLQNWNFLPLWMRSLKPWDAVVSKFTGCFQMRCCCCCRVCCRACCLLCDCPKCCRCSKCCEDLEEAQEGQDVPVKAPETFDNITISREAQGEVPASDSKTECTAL
Description: as §1

binding result [1]: no binding (tested: 200 nM)
Kd [2]: 1.43 nM
Kd [3]: 0.609 nM
B1: AV25 mAb, LALA-silenced (AV25 HC-LALA) (antibody, human IgG1, kappa, L234A L235A)
heavy: not shown
light: DIQMTQSPSSLSASVGDRVTITCSASQDIGNFLNWYQQKPGKTVKVLIYYASSLYSGVPSRFSGSGSGTDYTLTISSLQPEDFATYYCQQYSKLPLTFGQGTKLELKRTVAAPSVFIFPPSDEQLKSGTASVVCLLNNFYPREAKVQWKVDNALQSGNSQESVTEQDSKDSTYSLSSTLTLSKADYEKHKVYACEVTHQGLSSPVTKSFNRGEC
notes: also called unmodified AV25 mAb
